In test [1] the target is monoclonal antibody 1129. In words: competitive ELISA; soluble 248/404 F inhibits 1129 binding to plate-adsorbed A2 F.
In test [2] the target is monoclonal antibody 1129. The test can be described thus: competitive ELISA; soluble 248/404 F inhibits 1129 binding to plate-adsorbed 248/404 F.
The target of test [3] is monoclonal antibody 1129. The test can be described thus: competitive ELISA; soluble A2 F inhibits 1129 binding to plate-adsorbed A2 F. In general terms: ELISA stands for enzyme-linked immunosorbent assay.
For test [4], the target named is monoclonal antibody 1129. In words: competitive ELISA; soluble A2 F inhibits 1129 binding to plate-adsorbed 248/404 F.

Bounds are passed on as bounds.

Among the data in US20060171955A1 are Percent Inhibition values, retold here.

Regarding “purified RSV fusion (F) protein from the cold-passaged, temperature-sensitive mutant A2 strain cpts-248/404 (PFP-3) (from UniProt P03420 26-574)”, the Percent Inhibition was determined as 94.7% in the test with monoclonal antibody 1129 [1] and 95.9% in the test with monoclonal antibody 1129 [2].

Regarding “purified RSV fusion (F) protein from the parent A2 strain (PFP-2) (from UniProt P03420 26-574)”, the Percent Inhibition in the test with monoclonal antibody 1129 [3] and in the test with monoclonal antibody 1129 [4] was more than 99% throughout.
